What is called Kd is the equilibrium constant for the complex coming apart. By EC50 (read off the curve) is commonly meant the concentration at which the effect is half-maximal. The term EC50 denotes the concentration that produces a half-maximal response.

Read-outs that look alike come from different tables or passages of the source.

In assay [1] the target is T1, monkey TIGIT (ECD)-hFc (monkey (cynomolgus)).
T1 construct: bought protein; also called cynoTIGIT(ECD)-hFc; cynomolgus TIGIT (ECD)-hFc; not shown: human Fc (hFc) of the bought protein
Description: SPR (BIAcore 8K), monkey TIGIT (ECD)-hFc on CM5 chip, antibody injected. Background: SPR reads the build-up and loss of mass on a sensor chip optically.

The target in assay [2] is T2, human TIGIT expressed on HEK293A cells (human, UniProt Q495A1 22-244).
T2 construct: also called HEK293A/human TIGIT cells
T2 sequence: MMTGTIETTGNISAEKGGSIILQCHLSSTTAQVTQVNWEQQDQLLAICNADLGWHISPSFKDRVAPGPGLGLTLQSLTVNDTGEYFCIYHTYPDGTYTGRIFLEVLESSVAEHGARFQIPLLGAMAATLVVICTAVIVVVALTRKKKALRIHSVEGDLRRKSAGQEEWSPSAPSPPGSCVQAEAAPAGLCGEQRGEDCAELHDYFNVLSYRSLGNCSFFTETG
Description: FACS, HEK293A/human TIGIT cells, serially diluted antibody (protocol of Example 5) [A]. On the procedure: (§1) After incubated at 4° C. for 1 h, plates were washed 3 times with PBST. Then, APC coupled Goat Anti-Mouse IgG (Cat #: 405308, BioLegend, US) diluted 500x was added to the plates. After incubation at 4° C. for 1 h, the plates were washed with PBS for 3 times and then cell fluorescence was monitored using a FACS machine (BD).
On the technique in general: A flow cytometer gives signals particle by particle.

In assay [3] the target is T3, monkey TIGIT expressed on HEK293A cells (monkey).
T3 construct: also called HEK293A/monkey TIGIT cells
T3 sequence (chain, as listed by the source limits assumed): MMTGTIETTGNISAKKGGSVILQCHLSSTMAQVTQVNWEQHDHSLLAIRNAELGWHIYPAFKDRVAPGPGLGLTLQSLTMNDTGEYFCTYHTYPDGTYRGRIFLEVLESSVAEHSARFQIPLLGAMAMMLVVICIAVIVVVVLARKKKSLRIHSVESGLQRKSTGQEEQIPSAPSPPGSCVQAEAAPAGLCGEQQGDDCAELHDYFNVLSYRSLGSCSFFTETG
Description: FACS on HEK293A/monkey TIGIT cells. The method, then:
as §1

The target in assay [4] is T2, human TIGIT expressed on HEK293A cells. The experiment in a line: cell-based or functional assay.
Assay [5] addresses T3, monkey TIGIT expressed on HEK293A cells. Description: FACS, HEK293A/monkey TIGIT cells, serially diluted antibody (protocol of Example 5) [B]. On the procedure: as §1
Assay [6] has as its target T1, monkey TIGIT (ECD)-hFc. The experiment in a line: ELISA, coated monkey TIGIT (ECD)-hFc (table head says FACS). For orientation: ELISA stands for enzyme-linked immunosorbent assay.
The target in assay [7] is T2, human TIGIT expressed on HEK293A cells. The experiment in a line: FACS on HEK293A/human TIGIT cells. The method, then: as §1
Assay [8] addresses T4, TIGIT (ECD)-hFc (human, UniProt Q495A1 22-141).
T4 construct: bought protein; also called recombinant human TIGIT (ECD)-hFc; Cat #: 10917-H02H, Sino Biological; not shown: human Fc (hFc) of the bought protein
T4 sequence: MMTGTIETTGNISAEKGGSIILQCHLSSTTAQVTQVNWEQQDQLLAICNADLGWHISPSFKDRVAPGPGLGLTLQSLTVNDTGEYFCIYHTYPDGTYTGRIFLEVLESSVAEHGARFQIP
The experiment in a line: FACS blocking assay (protocol of Example 7): serially diluted antibody pre-incubated with TIGIT (ECD)-hFc, then binding of TIGIT (ECD)-hFc to A549/human PVR cells measured; blocked ligand: human PVR. On the procedure: (§2) After incubated at 4° C. for 1 h, plates were washed 3 times with PBST and then added with PE coupled Goat Anti-human IgG (Cat #: PAI-86078, Thermofisher, US) diluted 500×. After incubation at 4° C. for 1 h, the plates were washed with PBST for 3 times and then cell fluorescence was monitored using a FACS machine (BD).

The target of assay [9] is T2, human TIGIT expressed on HEK293A cells. The experiment in a line: FACS, HEK293A/human TIGIT cells, serially diluted antibody (protocol of Example 5) [A]. This is another data set of the same source.
Assay [10] deals with T4, TIGIT (ECD)-hFc. Description: FACS blocking assay: antibody preincubated with TIGIT (ECD)-hFc, binding to A549/human PVR cells. The method, then: as §2
The target in assay [11] is T5, human TIGIT (ECD)-his (human, UniProt Q495A1 22-141).
T5 construct: bought protein; also called hTIGIT(ECD)-his; Cat #: 10917-H08H, Sino Biological; not shown: his tag of the bought protein
T5 sequence: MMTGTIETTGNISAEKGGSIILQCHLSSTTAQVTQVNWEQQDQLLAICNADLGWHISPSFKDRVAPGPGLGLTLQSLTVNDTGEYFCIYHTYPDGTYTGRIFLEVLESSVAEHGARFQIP
The experiment in a line: ELISA, coated human TIGIT (ECD)-his (table head says FACS). The method, then: Plates were washed for 3 times with PBST (PBS+0.05% Tween20), added with Goat-anti-mouse IgG-HRP (Cat #: A9309-1 ml, Sigma, US) diluted 5000×, and incubated for 1 h at room temperature. Plates were incubated with freshly prepared Ultra-TMB (Cat #: 555214, BD, US) for 5 minutes at room temperature for color development.

B1: Tiragolumab (antibody, V domains shown)
VH: EVQLQQSGPGLVKPSQTLSLTCAISGDSVSSNSAAWNWIRQSPSRGLEWLGKTYYRFKWYSDYAVSVKGRITINPDTSKNQFSLQLNSVTPEDTAVFYCTRESTTYDLLAGPFDYWGQGTLVTVSS
VL: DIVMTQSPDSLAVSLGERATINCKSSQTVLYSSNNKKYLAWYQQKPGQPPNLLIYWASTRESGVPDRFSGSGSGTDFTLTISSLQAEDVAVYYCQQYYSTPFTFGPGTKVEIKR
Regarding B1, the affinity in assay [1], expressed as Kd, was 62.2 pM. Moreover, the 50% effective concentration (EC50 (read off the curve)) in assay [2] and in [5] was around 0.2 µg/mL each time. In addition, the results for the half-maximal effective concentration (EC50) in assay [3], in [6] and in [7] were 900 pM, 140 pM and 440 pM, respectively. In addition, the “NK92-mediated ADCC against HEK293A/human TIGIT cells, EC50” value in [4] was determined as 46.5 pM.

B2: chimeric 149G11 (antibody, human IgG1, kappa, V domains shown)
VH: QVQLQQSGTELVRPGTSVKMSCRTAGYTFTNYWIHWVKQRPGHGLEWIGDIYPGGRYSNYNEKFRGKATLTADTSSSTAYMELSSLTSEDSAIYYCARYYESAMDFWGQGTSVTVSS
VL: DIVMSQSPSSLAVSVGEKVTVNCKSSQNLLYNSNQKSYLAWFQQKPGQSPKLLIYWASTRESGVPDRFTGSGSGTDFTLTISSVKAEDLAVYYCQQYYNYPFTFGSGTKLEIKR
notes: mouse variable regions with human IgG1/kappa constant regions; also called chimeric antibody 149G11
B2: the “EC50 (read off the curve)” value in [2] was around 0.2 µg/mL; in assay [5], around 0.5 µg/mL; in [9], around 0.2 µg/mL. Moreover, in assay [8], the “IC50 (read off the curve)” value was around 3 µg/mL.

B3: mouse 149G11 (antibody, V domains shown)
VH: QVQLQQSGTELVRPGTSVKMSCRTAGYTFTNYWIHWVKQRPGHGLEWIGDIYPGGRYSNYNEKFRGKATLTADTSSSTAYMELSSLTSEDSAIYYCARYYESAMDFWGQGTSVTVSS
VL: DIVMSQSPSSLAVSVGEKVTVNCKSSQNLLYNSNQKSYLAWFQQKPGQSPKLLIYWASTRESGVPDRFTGSGSGTDFTLTISSVKAEDLAVYYCQQYYNYPFTFGSGTKLEIK
notes: also called antibody from clone 149G11
With B3, the 50% effective concentration (EC50) is 41000 pM in assay [10], 1200 pM in assay [3], 860 pM in assay [11] and 100 pM in assay [7].

B4: chimeric 70E11 (antibody, human IgG1, kappa, V domains shown)
VH: QVQLQQPGTDLVKPGASVRMSCKASGYTFTSYNVHWVKQTPGQGLEWIGTIYPGNLATSYNQKFKGKATLTADKSSTTAYMQLSSLTSEDSAVYYCARSGTMDYWGQGTTLTVSS
VL: ENVVTQSPAIMSASPGEKVTMTCRASSSISSTYLHWYQQKSGASPKLWIYNTQNLASGVPARISGSGSGTSYSLTISSVEAEDAATYYCQQFGGYPLITFGAGTKLELKR
notes: mouse variable regions with human IgG1/kappa constant regions; also called chimeric antibody 70E11
As for B4, the “EC50 (read off the curve)” value in assay [2] and in [5] was around 0.2 µg/mL each time. Moreover, the “IC50 (read off the curve)” value in assay [8] is around 3 µg/mL.

B5: mouse 70E11 (antibody, V domains shown)
VH: QVQLQQPGTDLVKPGASVRMSCKASGYTFTSYNVHWVKQTPGQGLEWIGTIYPGNLATSYNQKFKGKATLTADKSSTTAYMQLSSLTSEDSAVYYCARSGTMDYWGQGTTLTVSS
VL: ENVVTQSPAIMSASPGEKVTMTCRASSSISSTYLHWYQQKSGASPKLWIYNTQNLASGVPARISGSGSGTSYSLTISSVEAEDAATYYCQQFGGYPLITFGAGTKLELK
notes: also called antibody from clone 70E11
For B5, the EC50 in assay [10] turned out to be 43000 pM; in assay [3], 390 pM; in assay [11] it was 820 pM; in assay [7], 560 pM.

For the origin of these results see US20220396617A1 (BEIJING MABWORKS BIOTECH, published 2022).
